Data on one molecule can be found in PMC12286842 (Nature, 2025).

Usually Kd stands for a measure of binding affinity in units of concentration.

This assay addresses T1, ^15N-labelled ubiquitin (WT, untagged) (UniProt P0CG48 1-76, ^15N-labelled).
T1 construct: ubiquitin, the 76-residue mature protein; also called ^15N-ubiquitin; source: E. coli BL21 (DE3) in M9 medium with ^15N-ammonium chloride, purified (cation exchange, Superdex 75 SEC)
Nature of the assay: NMR titration; ^1H-^15N HSQC of ^15N-ubiquitin titrated with unlabelled UBR4-UBL; 25 mM NaPi pH 7.0, 150 mM NaCl, 1 mM TCEP, 10% D2O; global fit of chemical shift perturbations to 1:1 binding. The note with it: both partners purified.

B1: 6×His-tagged UBR4-UBL (residues 4340–4463) (domain or fragment, human, UniProt Q5T4S7-1 4340-4463, looked up)
chain: YPEENEVTEFFVTLEKDPQQEDFLQGRMPGNPYSSNEPGIGPLMRDIKNKICQDCDLVALLEDDSGMELLVNNKIISLDLPVAEVYKKVWCTTNEGEPMRIVYRMRGLLGDATEEFIESLDSTT
notes: UBR4 ubiquitin-like (UBL) domain, residues 4340–4463 of UniProt Q5T4S7-1; also called UBL domain; UBR4 UBL domain; source: E. coli BL21 (DE3), purified (Ni-NTA HisTrap FF, Superdex 75 SEC)
Consider B1, for which the dissociation constant (Kd) came to 124 µM.
